{
  "source": "a protein production outcome set (Wang et al. 2014)",
  "data": [
    {"assay": "label from the status in PepcDB records", "values": [
      {"sequence": "MPAPAATYERVVYKNPSEYHYMKVCLEFQDCGVGLNAAQFKQLLISAVKDLFGEVDAALPLDILTYEEKTLSAILRICSSGLVKLWSSLTLLGSYKGKKCAFRVIQVSPFLLALSGNSRELVLD", "protein production": "not failed"},
      {"sequence": "MPARPAYSRLQIALHWLVAILIAAAWLTHEGMGRALETRIETGASGFEGNTPHVWLGIAVFVAVLIRIVVRRVQGAPGPLPGATPLMEKAATWGHRLLYLLMVLTPALGALAWNAHSEAVGELHETVGSALMLVALGHALVALWHQYVKKDGSLTRITRPQG", "protein production": "failed"},
      {"sequence": "MPCTPDTTSHPCFTEKAAQSCGRVHLPVAPKCNVLCGYCNRKYDCVNESRPGVTSGVLTPAQAADYLDRVLEREPAIRVAGIAGPGDPMANAAATLETLRLIRQRHPDMLFCLSSNGLGMPPHLDALAANGVTHATLTINAVDPDISARLYTWVRDGKVVWRGRPAAELMLERQLTALTGLVQRGIVVKVNTILVPGINDGHVEQVAEKVAALGATLMNIIPLHPTHDTPLAQVAEPSPEAVGEARRLAGAHIRQMTHCRRCRADAVGLLHHDRSRELAPLLRECAQKDDGAGARPFVAVATREGMLVNQHLGEATRLQIWGLGPARSGKGGTTTGGEAASGRNDAKGTGSGDVPGSTGGNSWGKAGATPWDSEEDKNDKRTDSTGSTGGDSGAVCGTTHGTTCGKDATRAGTDATDMPVPVLLEERATPRPGCGPERWHALADMLKDCRAVLTAACGESPRAILREHGITVTECAGIVEDVVGAVLAGLDVNAFRARKGGVSKGCCRGGGDGC", "protein production": "failed"},
      {"sequence": "MPDGWRKMGVLVFYDLPVVSPEQRLAAVRFHKFLLADGFERMHYSIYARYCGSMERAATYERRVEQALPAVGHVNLLKLTDRQMVGMRKWIRGNYRAPENAEFVPPAQYQLFLEHHHHHH", "protein production": "failed"},
      {"sequence": "MPDIAVLVKASLNPDMARIGPDDSVDLNSIPLKISDIDRNAVEEAVKLKEKLGGKLYAVSVLTWGPVKLRNKDLRLAVQEALAKGVDEAIVVADDELTPGDQTTTAKAIKAALEKHGVKPELILAGEATIDEVTSQVPGRLASLLGYKYLSFVRKLDVDNGRIIAERDLEDYIEVVEASLPAVVSVTQEINEPRPPTLLQIRRAARKPVKEYSASELENVGKPVRRIVQIRGVQVKRKQQIIEGDNLEEIAEKLIEALAREGVLKL", "protein production": "failed"},
      {"sequence": "MPDINESMLNQFRPVIRRFIDPIADRIALPADYITLTGFLVACAASAGYASGSLITGAALLAASGFIDVLDGAVARRRFRPTAFGGFLDSTLDRLSDGIIIIGITAGGFTGLLTGLLALHSGLMVSYVRARAESLGIECAVGIAERAERIIIILAGSLAGYLIHPWFMDAAIIVLAALGYFTMIQRMIYVWQRLK", "protein production": "failed"},
      {"sequence": "MPDKKREVSLSHRLQEVASFVPKGARLLDVGSDHAYLPIYLLEQGLIDFAVAGEIIKGPYESAVANVSESELSGQIAVRLADGLAALNDNDDIDLITICGMGGRLIADILAAGSDKLNSVKQLILQPNNCEDDLRSWLVANDFMIKAEKMVKDRHKYYEILVVEKGKITLSDKDLRFGPFLRQERSSIFKERWRKELAKLELALTKVPAKKKADNMFLSTKIEQIKEVLYES", "protein production": "not failed"},
      {"sequence": "MPDSPLPLYHKVYLLLKQRLQSGGFALNAAMPGENALAAEYGVSRLTIRRSLEALESEGLIERRQGRGTFAAEGAILSAPQHSADIDTLMAHLARMGMHTQVNLLELDTVPATPQVAAQLELPAGAPVQRAVRVRSHQGLPFSYLVTYVPGEIGQRIRREDLGAKPLLAIFRDLGVRVARAQQSISAVLAEPGTAGALDVPVGSALLSLQRLVRDDAGRPVEWLHALYRPDRYEYRLDMQAHDTPGQPTWLPAGAPRRA", "protein production": "failed"},
      {"sequence": "MPDTPAEGYGNTLSSLALDHNWRTIYPLGAYQLSGLAWVDPQALWLRQLPRLPFCQATLGASFLALDRVRGFILLINGENDHSEILNPYDLEPFLDANGLCLYRETLWFCRDTWLYRCHLPDWHVEKMLECRYPIYGVAVDETGIYVACQKSGYIHCFDETGREQYRLSAPGIGCENLALKDGYLWVSDRLEQSIYCLDRHSGHVEWVALTPFAQPTAFTFDATGQLWVAYGGEEAYLRDNPNNREAPLEIDYRDICLIHPLLYHTHREQHYTLSNGYLIEMAYVEELSPLDALHLDNLEWRIALPANSPRQKLLRVEPVGTPFRLETVADQQVAVFDFPELRPYEARLFGWRAWLEVRGMKYHLSFDNIDETQPLPSEFAAQYLVDNDELAMDQPIVQEAAREAVGTETNILRKMLKIRNYVYDRLSYAMRPTIETPDVVLKRGTGSCGEYVGVLLALARLNGIACRTVGRYKCPPYPQKRGIPLQPTYNHVWLEFYVPGVGWVPMESNPDDVVERGPYPTRFFMALPWYHVEVGKGIRFETTNYRDRGVRLGDLALNHVRFTIHSELPPLLLEHHHHHH", "protein production": "failed"},
      {"sequence": "MPEHTPAPTPHRAVYGFAFYMLFTVLFLVYVTWALLPVEFGLHSYLPDKYFAVFVPFLVLVFAWFFAFLIYPAINLSMTVDVDSIASVVDPKLALPKGTEFTSWSQLQKGKVSQDSASKKASPVNCNLCRTFHQPVTRAPIPPLRFLDLQEVNTAYYN", "protein production": "failed"},
      {"sequence": "MPEITLNCQKLPCPQPVLRCKALLDTEAPARCTVTVDNAPASENVARFLTSRGYDTSVHADPEGLWNIIAVRKDSAVAPSCDCEVMDARGIAAIAGTAEMPQKVTVFITSETLGSGDDVLGGKLMANFLATLPELGDELWRIVCVNGGVRLATREHPAVTHLNKLEAMGVDILVCGTCLDHFGLLSEKAVGQTTNMLDVVTSLQLATKVIRPLEHHHHHH", "protein production": "not failed"},
      {"sequence": "MPEKKPVTAENSVGIDLGIEKFAILSDGIAVENPRFIKRVEKRIKKLQKQISRKKKGSKNYEKQKIRIQKKYRKLRNLRDDFHDKVSTAIAKRYDTIFIEDLNVRGMQRNHHLARSITDVSFYSFKEKLKWKADRYGKNLIEIGRFDPSSKLCSRCGNIKKDLKLSDRVYSCDACGLTIDRDYNASLDIRKIGLVKVGLVPPEFTPVEIATSGLDGIYPYRQMSVGESGRSEASAEELEHHHHHH", "protein production": "failed"},
      {"sequence": "MPESRTVALVTLGCARNEVDSEELAGRLEADGWKLVDDAEEADVAVVNTCGFVEAAKKDSVDALLEANDLKGHGRTQAVVAVGCMAERYGKELADALPEADGVLGFDDYADISDRLQTILNGGIHAAHTPRDRRKLLPISPAERQEAGAAVALPGHGPTDLPEGVAPASGPRAPLRRRLDGSPVASVKLASGCDRRCSFCAIPSFRGSFISRRPSDVLNETRWLAEQGVKEIMLVSENNTSYGKDLGDIRLLESLLPNLAEVDGIERVRVSYLQPAEMRPGLIDVLTSTEKVAPYFDLSFQHSAPNVLRAMRRFGDTDRFLELLDTIRSKAPEAGVRSNFIVGFPGESEADLAELERFLNHARLDAIGVFGYSDEEGTEAATYGDKLDEDVVAERLARVSRLAEELVSQRADERVGATVRVLVESVDPAGEGDGVRGRAEHQAPETDGQVLLTSGAGLSVGRMVDAKVVGTEGVDLVAEPLLGSPEWSEEAGRLEHHHHHH", "protein production": "failed"},
      {"sequence": "MPEYSSVTGLEGVKFAPLKKENGFYVATKIIDYPYAINAKVNTETSTEKQYADNKLVDMAVTTGSTKLELEMRDLPMEILEELFGIEETDGIYMFKKNVIAPWVAMSFYGPKANGKNRHVGLVKGRFSLPDDEWKTKEEKTDFQTVKLSAEFMEREQDNAYKVLADEDAPNFNLDKFYEKVFGNAYKNPLEHHHHHH", "protein production": "not failed"},
      {"sequence": "MPFGYGLSYGTDFSQEIVSTEQNEDSVTLKVHAANNGTKAGKDVVQVYYNPPYTDFDAKNSIEKSTVNLIAFEKTDDIQPGAAQDITVTVTKEDMASYSYAHENSDGTKGAYLLEQGDYALSINKTAHEEYQSVTVNVPQTIWYDNDNPRQSDKDGQAILDDQGDPTNEPANGDTFKAASNLFQDMTDHMSKTSQLTRANGALSNTATFPTKEEMADISAAFNAKTDDEGRLILQQMDLDTDTTLGNTAGSKVYTTEKPTSNADNGLTLSDLRGVDFNDTKWDQLLDQLEWPSRMPE", "protein production": "failed"}
    ]}
  ]
}
